Test results from US10975167B2, “Method to reduce pulmonary arterial hypertension by administering inhibitors of nicotinamide phosphoribotransferase” (Arizona Board of Regents on Behalf of the University of …, priority 2017, dated 2021).

How the values were obtained:
hPASMCs [1] = test: TUNEL apoptosis assay in hPASMCs; format: cell-based, human; conditions: H2O2 100 μM + rhNAMPT 20 μg/ml, 24 hrs
Method: hPASMCs were cultured on a coverslip in a 6-well cell culture plate. H2O2 (100 μM, Sigma, Cat. #ab66110) was used as an apoptosis stimulus for hPASMCs.
When cell confluence reached 95%, cells were starved for 3 hrs and stimulated by H2O2, FK866 (10 μM), H2O2+rhNAMPT (20 μg/ml) or H2O2+rhNAMPT (20 μg/ml) with FK866 (10 μM) for 24 hrs. Cell apoptosis was examined using an in situ BrdU-Red DNA fragmentation (TUNEL) kit. The cells on the coverslips were examined using a Nikon Eclipse E800 fluorescence microscope, and the images were processed by MetaMorph software (Molecular Devices, Inc.). Approximately ten images were taken from each condition, and over 500 cells were counted according to DAPI staining.

human lung SMC = test: BrdU proliferation of human lung SMC exposed to recombinant NAMPT; format: cell-based; conditions: 1, 5, 20 μg/ml
Method: Cell proliferation was determined using either a 5-bromo-2′-deoxyuridine (BrdU) incorporation assay or cell counting. BrdU assays (QIA58, Calbiochem, San Diego, Calif.) were performed in a 96-well format according to manufacturer's instructions, using starting cell densities of 4000 cells/well. For cell counting, cells were trypsinized and resuspended after experimental procedures; densities were counted with a TC10™ automated cell counter (Bio-Rad). FBS or PDGF was used as positive controls.

hPASMCs [2] = test: Transwell migration and wound healing assays; format: cell-based, human; conditions: rhNAMPT 20 μg/ml
Method: For quantitative data from transwell migration assays (ANOVA P<0.05). 50,000 cells were added into Falcon™ Cell Culture Inserts (Fisher, Cat. #08-771-12) with 8-μm pores in 1 ml of basal medium and 250 μl on the top of the transwell. Cells were then stimulated by vehicle, rhNAMPT (20 μg/ml) with or without FK866 (10 μM) for 48 hrs. Unmigrated cells were then scraped from the top of the filter and the migrated bottom layer of cells were stained by 1% aqueous Crystal Violet solution (Electron Microscopy Sciences, Cat. #RT 26088-10). The transwell bottom was gently separated by a blade and put on a glass slide for imaging.
The migrated cells were counted and quantified. Images were taken by an Olympus BX51Fluorescence Microscope and processed by DPController Software (Oylmpus IMS).
In wound healing assays, approximately 0.5 million human Primary Pulmonary Artery Smooth Muscle Cells (hPASMCs) were seeded to 6-well cell culture plates, a straight line was scratched using a 200-μl pipette tip after cells reached 100% confluence. Three dots were labelled beside each line. […]
Image J software was used to measure the wound line width for all the three spots labeled in each line. Wound closure %={[width (start point)-width (end point)]/width (start point)}×100% was calculated (ANOVA P<0.05).

human lung SMCs = test: Store-operated Ca2+ entry and STIM2/Orai2 expression in human lung SMCs; format: cell-based; conditions: 48 hr
Method: Recombinant NAMPT protein (CY-E1251) was obtained from MBL Lifescience. Solubilized protein lysates isolated from lung tissues and cells were used to detect NAMPT, STIM2, ORAI2 and actin as previously described. Cells were lysed in a modified radioimmunoprecipitation assay (mRIPA) lysis buffer with a protease and phosphatase inhibitor cocktail (Sigma Aldrich, St. Louis, Mo.), and protein quantification and Western blot analysis were performed according to standard procedures.
Human Primary Pulmonary Artery Smooth Muscle Cells (hPASMCs) from control and PAH patients were obtained and isolated as previously described from Lonza (CC-2581 and CC-2530) were used for cell transfection and proliferation assays.
[Ca2+]cyt was measured in PASMC loaded with fura-2 (4 mM) in a Nikon digital fluorescent imaging system. Cells were loaded with 4 μM fura-2 acetoxymethyl ester (fura-2/AM) for 60 min at 25° C. and [Ca2+]cyt was measured using a ratiometric method at 32° C. Cyclepiazonic acid (CPA, a specific Ca2+-ATPase inhibitor) was used to induce store-operated calcium entry (SOCE).

B1: rNAMPT: Recombinant NAMPT protein (CY-E1251) from MBL (protein)
chain: MNPAAEAEFNILLATDSYKVTHYKQYPPNTSKVYSYFECREKKTENSKLRKVKYEETVFYGLQYILNKYLKGKVVTKEKIQEAKDVYKEHFQDDVFNEKGWNYILEKYDGHLPIEIKAVPEGFVIPRGNVLFTVENTDPECYWLTNWIETILVQSWYPITVATNSREQKKILAKYLLETSGNLDGLEYKLHDFGYRGVSSQETAGIGASAHLVNFKGTDTVAGLALIKKYYGTKDPVPGYSVPAAEHSTITAWGKDHEKDAFEHIVTQFSSVPVSVVSDSYDIYNACEKIWGEDLRHLIVSRSTQAPLIIRPDSGNPLDTVLKVLEILGKKFPVTENSKGYKLLPPYLRVIQGDGVDINTLQEIVEGMKQKMWSIENIAFGSGGGLLQKLTRDLLNCSFKCSYVVTNGLGINVFKDPVADPNKRSKKGRLSLHRTPAGNFVTLEEGKGDLEEYGQDLLHTVFKNGKVTKSYSFDEIRKNAQLNIELEAAHH
- hPASMC apoptosis (TUNEL positive cells) (hPASMCs [1]): inhibits
- human lung SMC proliferation (human lung SMC): dose-dependently stimulating
- human PASMC migration (hPASMCs [2]): promotes
- cyclopiazonic acid (CPA)-mediated store-operated Ca2+ entry (SOCE) (human lung SMCs; 20 μg/ml): augments
- expression of Orai2 (human lung SMCs): increases
- expression of STIM2 (human lung SMCs): increases
